From patent US6033847, “InK4c-p18 and InK4d-p19, inhibitors of cyclin-dependent kinases CDK4 and CDK6, and uses thereof” (St. Jude Children's Research Hospital, dated 2000)
One block for each binder: values may come before it.

Tests used:
cyclin D2 = cyclin D2 (Mus musculus (Mouse), UniProt P30280); experiment: GST pull-down of radiolabelled cyclins D2 and D3
Description: (§1) Panel A is an autoradiograph of aliquots of the ^35S-methionine-labeled products, derived from the in vitro transcription and translation of plasmids containing CDNA coding sequences of the cdc or cdk gene indicated in the legend below lanes 1–6, separated by electrophoresis on denaturing polyacrylamide gels. Equal aliquots of the "input" samples shown in lanes 1–6 were incubated with control beads (lanes 7–12) (i.e., GST-Sepharose; GST=glutathione S-transferase) or with beads containing a GST-p19 fusion protein (lanes 13–18), after which the beads were washed, and adsorbed radiolabeled products were separated on gels and autoradiographed. In Panel B, the experiments were performed as in panel A, except that radiolabeled cyclins D2 and D3 were substituted for cdk gene products; the cdk4 gene product was used as a positive control. All autoradiographic exposure times were 15 hrs.
(§2) Plasmids derived from pBluescript and containing the entire coding sequences of the mouse cdk2, cdk4, cdk5, or cdk6 genes (Matsuoka et al., Mol. Cell. Biol. 14:7265–7275 (1994); Matsushime et al., Cell 71:323–334 (1992)) or human cdc2/cdk1 or cdk3 genes (provided by Drs. Matthew Meyer-son and Edward Harlow (MGH Cancer Center, Cambridge, Mass.)) were transcribed and translated in vitro (Matsuoka et al., Mol. Cell. Biol. 14:7265–7275 (1994)). Mouse cdk6 cDNA was cloned from a mouse macrophage library (Stratagene, La Jolla, Calif.) by screening with a full-length human cdk6 clone (also provided by M. Meyerson and E. Harlow). Following transcription and translation, rabbit reticulocyte lysates containing ^35S-methionine labeled CDKs (20–40 ul) were diluted to 0.5 ml in IP kinase buffer (50 mM Hepes, pH 7.5, containing 150 mM NaCl, 1 mM EDTA, 1 mM DTT, 0.1% Tween-20) containing 10 mg/ml BSA and mixed with 1 ug of purified GST or GST-p19 immobilized on glutathione-Sepharose beads. After 2 hours of incubation at 4° C., beads were collected by centrifugation, washed 4 times in IP kinase buffer, and the bound proteins were denatured and analyzed by electrophoresis on 12.5% polyacrylamide gels containing SDS (Anderson, S. J., et al., J. Virol. 51:730–741 (1984)).

cyclin D3 = target: T1, cyclin D3 (Mus musculus (Mouse), UniProt P30282); experiment: GST pull-down of radiolabelled cyclins D2 and D3
T1 sequence: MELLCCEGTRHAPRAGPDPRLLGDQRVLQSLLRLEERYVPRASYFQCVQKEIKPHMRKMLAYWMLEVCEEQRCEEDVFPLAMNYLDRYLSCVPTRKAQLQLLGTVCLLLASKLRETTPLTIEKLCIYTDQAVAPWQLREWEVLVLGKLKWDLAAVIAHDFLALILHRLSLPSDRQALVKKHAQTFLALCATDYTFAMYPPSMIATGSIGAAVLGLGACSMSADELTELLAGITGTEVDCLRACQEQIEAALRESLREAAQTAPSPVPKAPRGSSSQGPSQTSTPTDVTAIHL
Description: as §1, §2

mouse CDK5 = mouse CDK5 (mouse, UniProt P49615); experiment: GST pull-down of 35S-labelled in vitro translated CDKs
Description: (§3) Equal aliquots of the "input" samples shown in lanes 1–6 were incubated with control beads (lanes 7–12) (i.e., GST-Sepharose; GST=glutathione S-transferase) or with beads containing a GST-p19 fusion protein (lanes 13–18), after which the beads were washed, and adsorbed radiolabeled products were separated on gels and autoradiographed. In Panel B, the experiments were performed as in panel A, except that radiolabeled cyclins D2 and D3 were substituted for cdk gene products; the cdk4 gene product was used as a positive control. All autoradiographic exposure times were 15 hrs.
(§4) Human InK4 polypeptides specifically bind to the cyclin D-dependent catalytic subunits, CDK4 and CDK6 (5,18,45). To study the interactions of mouse p19 and p18 with CDKs, cDNAs encoding CDC2 (CDK1) and CDKs 2–6 were transcribed and translated in vitro, and the radiolabeled products were mixed with GST-tagged p19 and p18 fusion proteins adsorbed to glutathione-Sepharose beads or to GST-Sepharose beads as a control.
as §2

human CDC2 (CDK1) = human CDC2 (CDK1) (human, UniProt P06493); experiment: as above
Description: as §3, §4, §2

mouse CDK2 = mouse CDK2 (mouse, UniProt P97377-2); experiment: as above
Description: as §3, §4, §2

[1] = target: cyclin D1 (endogenous, murine BAC1.2F5 macrophages) (mouse, UniProt P25322); experiment: co-immunoprecipitation from lysates of proliferating mouse cells with antiserum to the p19 C-terminus

binding result (cyclin D2): no binding
binding result (cyclin D3): no binding
binding result (mouse CDK5): no binding
binding result (human CDC2 (CDK1)): no binding
binding result (mouse CDK2): no binding
B1: GST-p18 fusion protein (glutathione S-transferase fused to mouse InK4c-p18) (other)
chain: MAEPWGNELASAAARGDLEQLTSLLQNNVNVNAQNGFGRTALQVMKLGNPEIARRLLLRGANPNLKDGTGFAVIHDAARAGFLDTVQALLEFQADVNIEDNEGNLPLHLAAKEGHLPVVEFLMKHTACNVGHRNHKGDTAFDLARFYGRNEVISLMEANGVGGATSLQ

binding result (cyclin D2): no binding
binding result (cyclin D3): no binding
binding result (mouse CDK5): no binding (tested: 1 ug on beads)
binding result (human CDC2 (CDK1)): no binding (tested: 1 ug on beads)
binding result (mouse CDK2): no binding (tested: 1 ug on beads)
B2: GST-p19 fusion protein (glutathione S-transferase fused to mouse InK4d-p19) (other)
chain: MLLEEVCVGDRLSGARARGDVQEVRRLLHRELVHPDALNRFGKTALQVMMFGSPAVALELLKQGASPNVQDASGTSPVHDAARTGFLDTLKVLVEHGADVNALDSTGSLPIHLAIREGHSSVVSFLAPESDLHHRDASGLTPLELARQRGAQNLMDILQGHMMIPM

binding result [1]: no binding
B3: mouse InK4d-p19 (other)
chain: B2 chain
